Data from the supplement of paper PMC12042874.
± gives the uncertainty stated by the source.

Assay: amyloid nucleation score (Sup35N fusion, yeast selection) (log enrichment); library NNK1; higher = more nucleation; inactive = no reads after selection
In short: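 Yeast lacking psi expressed peptides of 20 random codons fused to Sup35N, received 100 μM copper sulfate for 24 hours, and were then grown for 7 days at 30°C on medium lacking adenine and uracil. Illumina sequencing of input and output plasmid inserts provided the reads. Nucleation scores are DiMSum log enrichments of output over input, centred on the mode of non-aggregating sequences. Any sequence with under 100 input reads was excluded.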
CFMCTGAGCILNEMPRNLLG showed an amyloid nucleation score of 7.793 ± 0.071. Work on GVPYR yielded an amyloid nucleation score of 0.044 ± 0.68. In the case of IDHPTVKLIRYSAIHIALVT, the amyloid nucleation score is reported as 0.093 ± 0.28. LMWVNLTSVFVRMD showed an amyloid nucleation score of 0.14 ± 0.31. Substance FIVGTFLHENASLRFRIHKA has an amyloid nucleation score of -0.011 ± 0.35. VCPVHSNKGLQFLSMRHYSS gave an amyloid nucleation score of 0.511 ± 0.87. For SEWIKLRVRLDLSLVAFKII, the amyloid nucleation score was 0.686 ± 0.39. RWNRTRFPHLYCKIGEKCIY showed an amyloid nucleation score of 0.312 ± 0.33. MFQPFPFIHQVDQPFPKSVQ gave an amyloid nucleation score of 0.51 ± 0.47. For YLVSYMWVSLDDLSLYRANG, the amyloid nucleation score was 0.585 ± 0.52. With APLEFWRGTVVAWLWYLCPF the amyloid nucleation score was 0.303 ± 0.41. In the case of QKWVFVEVCSCRVSLTNLVL, the amyloid nucleation score is reported as 0.233 ± 0.35. NMDGSVSCVCNILSFDYGGS gave an amyloid nucleation score of 8.289 ± 0.077. TMLTWASRRLDYFSGALCFM gave an amyloid nucleation score of -0.119 ± 0.45. NNCLWLLGPRFPCVIMLVPA gave an amyloid nucleation score of 2.18 ± 0.14. Work on FFFYKPMNVEAIRDLHWPYS yielded an amyloid nucleation score of 6.229 ± 0.06. LIKSMDFLGRM gave an amyloid nucleation score of 0.117 ± 0.69. ILVHSMGFLGKRYCGCMWGD gave an amyloid nucleation score of 3.41 ± 0.13. For RLFDVMTITYTRSLSSPSCD, the amyloid nucleation score was 0.405 ± 1.2. For FTNNVLNINVRG, the amyloid nucleation score was 0.253 ± 1.2. With LVVKQLLNSAGCTRPCTVRC the amyloid nucleation score was 0.164 ± 0.55. In the case of GTCFCFITVSLLLVPVVLSD, the amyloid nucleation score is reported as -1.02 ± 2.7. Substance HYTLIESSNRSANNEPQVTH has an amyloid nucleation score of 0.353 ± 0.88. For KGHRCNIVTTNTAPRFPW, the amyloid nucleation score was -0.482 ± 0.91. Substance PFRVLWTCITG has an amyloid nucleation score of -0.229 ± 1.4. With VRKSSVASLECQNA the amyloid nucleation score was 0.335 ± 0.28. With SSLPDAWVYLGSSWLEDHGR the amyloid nucleation score was 0.461 ± 0.7. For ISGRVGAWSPIVYWPLRRGG, the amyloid nucleation score was -0.573 ± 0.61. With QMVQYSRKSITFLGRPVLFS the amyloid nucleation score was 0.291 ± 0.55. For LRVCNLFCL, the amyloid nucleation score was 7.912 ± 0.046. TLSLTNYELSKQSWMVLC gave an amyloid nucleation score of -0.236 ± 0.64. For VNLGVRAGGLCRHAEKGDMT, the amyloid nucleation score was -0.364 ± 0.53. In the case of VCMWRFLVGRT, the amyloid nucleation score is reported as -0.238 ± 0.9. With TTEHAK the amyloid nucleation score was -0.263 ± 0.2. For TFYGY, the amyloid nucleation score was -0.487 ± 1.4. Work on YCTGSRVVPDGSLVYATCNM yielded an amyloid nucleation score of 0.895 ± 0.65. Work on RDEVGIVHRMSEPKRYGGIK yielded an amyloid nucleation score of -1.11 ± 1.5. Work on MLVFNNFEPLFLFVSTWTCQ yielded an amyloid nucleation score of 7.11 ± 0.06. For GYASAVVHHVGWNPTVGSLM, the amyloid nucleation score was -0.115 ± 0.42. GVGMAPATLGPETHEKSELM showed an amyloid nucleation score of 0.282 ± 0.3. For ILNYVRPCS, the amyloid nucleation score was 0.416 ± 0.56. For MCFSVG, the amyloid nucleation score was -0.148 ± 0.4. In the case of HPLAAVSKLCRRSRLGLSSR, the amyloid nucleation score is reported as -0.124 ± 0.35. In the case of QAVSRHNGSSVVTVRFKLSP, the amyloid nucleation score is reported as 1.49 ± 0.52. Substance ATGINTGMTSNYSVMEMWGF has an amyloid nucleation score of 0.937 ± 0.48. EPYLISEFRRT showed an amyloid nucleation score of -0.364 ± 0.47. In the case of IPLAGLFYSFWISLHTRSNT, the amyloid nucleation score is reported as -0.308 ± 0.52. With IEIIIASSGHHHYIKRDNVY the amyloid nucleation score was 0.652 ± 0.58. IFCAPLTTSQIALRVYNRRL showed an amyloid nucleation score of 0.727 ± 0.88. In the case of STTSMPDWLNVWVSRSSSVV, the amyloid nucleation score is reported as 1.06 ± 0.28. SVRVMVLFWIKHCRLLWGRH gave an amyloid nucleation score of -0.405 ± 1.7. Substance KLTQKCHKCLH has an amyloid nucleation score of 0.107 ± 0.68. Work on VNPNGGEDNVLGCPIRSWQW yielded an amyloid nucleation score of -0.031 ± 1.2. Substance SSTRT has an amyloid nucleation score of 0.667 ± 0.97. Work on VKSWVPTDVGFEQQSGREVL yielded an amyloid nucleation score of 0.093 ± 0.25. In the case of AKRLFRRSTLMTSNTGLAVL, the amyloid nucleation score is reported as 0.287 ± 1.4. SETYTPDRYNVRT gave an amyloid nucleation score of 0.536 ± 1.4. GSNKRHSYTLVLSRNVYPSG gave an amyloid nucleation score of 0.014 ± 0.49. Substance IFDSFQATLCLGCLMLLSYF has an amyloid nucleation score of 0.423 ± 0.44. In the case of WVSFCNFDGKKFGAVRAHYY, the amyloid nucleation score is reported as -2 ± 0.97. In the case of LFTVKKVFQLLYL, the amyloid nucleation score is reported as 0.936 ± 0.7. In the case of IEWFVLGDYMCTAQSVCGLV, the amyloid nucleation score is reported as -1.26 ± 1.3. Substance IYVRGRMRVMGARH has an amyloid nucleation score of -1.26 ± 1.5. For EHLISYATYEVLVSTWNSFE, the amyloid nucleation score was “inactive”. In the case of CFDVQ, the amyloid nucleation score is reported as 2.29 ± 0.61. Work on MSDCPACGCSCHRSKLISGF yielded an amyloid nucleation score of -0.414 ± 0.5. Work on FVDSFVNIWLIKTFSRIVVD yielded an amyloid nucleation score of 0.161 ± 0.3. For QRWLWKRNLDCQRDTSL, the amyloid nucleation score was 0.514 ± 0.75. Substance AGLRIYVVSFILTYGKRFSS has an amyloid nucleation score of 0.12 ± 0.4. Substance FRFRLGNFGLRFRGYPERII has an amyloid nucleation score of 0.405 ± 0.3. SSINMVVSPK showed an amyloid nucleation score of 1.09 ± 0.3. Work on LREFPFYFTISLRITLFMSL yielded an amyloid nucleation score of -0.391 ± 0.23. LYRSGSPRTGWKLMSSSARR gave an amyloid nucleation score of 7.525 ± 0.07. NPGPYRARHSSDSWRGNYNE showed an amyloid nucleation score of -0.366 ± 0.58. With VDYFFMGAGFEL the amyloid nucleation score was 4.53 ± 0.077. For GKVFVCSIVYSIRMSITSRI, the amyloid nucleation score was “inactive”. Substance LQASLGNDPSSVRVSSRGNW has an amyloid nucleation score of -0.468 ± 0.54. Work on TEFERFFKRDGYWGSRSYSR yielded an amyloid nucleation score of 0.221 ± 0.59. Work on ASDMSCMQSNSYFNLCTYTM yielded an amyloid nucleation score of 5.28 ± 0.064. With DSQFAVKFCAR the amyloid nucleation score was “inactive”. VWENQLVWMVWWWEGTGS gave an amyloid nucleation score of 0.527 ± 0.49. Work on LVRKKVCTI yielded an amyloid nucleation score of 0.543 ± 0.36. PDLTSCDVIVIWGFGRG showed an amyloid nucleation score of -0.118 ± 1. Substance MLLRRKNIAGGYMVLEVGLS has an amyloid nucleation score of -0.1 ± 0.31. With MVFFTCSEMDVYMWRGYFNY the amyloid nucleation score was -0.727 ± 0.28. FMDDSSLFPSI showed an amyloid nucleation score of 0.569 ± 0.58.
